Patent US20100062005A1 (University of California, published 2010)
Read-outs that look alike come from different tables or passages of the source.

Tests used:
human ROR1 protein [1] = biological target: T1, human ROR1 protein (human, UniProt Q01973 30-937)
human ROR1 protein [2] = biological target: T1, human ROR1 protein; experiment: flow cytometry on CD5-negative, CD10+, CD19+ marrow B lymphocyte precursors (N=9 samples)
human ROR1 protein [3] = biological target: T1, human ROR1 protein; experiment: flow cytometry, Alexa-647-4A5 against IgG2b isotype control, ZAP-70-negative CLL cases (N=36)
human ROR1 protein [4] = biological target: T1, human ROR1 protein; experiment: flow cytometry, Alexa-647-4A5 against IgG2b isotype control, ZAP-70-positive CLL cases (N=33)

T1 sequence (Q01973 30-937 limits assumed): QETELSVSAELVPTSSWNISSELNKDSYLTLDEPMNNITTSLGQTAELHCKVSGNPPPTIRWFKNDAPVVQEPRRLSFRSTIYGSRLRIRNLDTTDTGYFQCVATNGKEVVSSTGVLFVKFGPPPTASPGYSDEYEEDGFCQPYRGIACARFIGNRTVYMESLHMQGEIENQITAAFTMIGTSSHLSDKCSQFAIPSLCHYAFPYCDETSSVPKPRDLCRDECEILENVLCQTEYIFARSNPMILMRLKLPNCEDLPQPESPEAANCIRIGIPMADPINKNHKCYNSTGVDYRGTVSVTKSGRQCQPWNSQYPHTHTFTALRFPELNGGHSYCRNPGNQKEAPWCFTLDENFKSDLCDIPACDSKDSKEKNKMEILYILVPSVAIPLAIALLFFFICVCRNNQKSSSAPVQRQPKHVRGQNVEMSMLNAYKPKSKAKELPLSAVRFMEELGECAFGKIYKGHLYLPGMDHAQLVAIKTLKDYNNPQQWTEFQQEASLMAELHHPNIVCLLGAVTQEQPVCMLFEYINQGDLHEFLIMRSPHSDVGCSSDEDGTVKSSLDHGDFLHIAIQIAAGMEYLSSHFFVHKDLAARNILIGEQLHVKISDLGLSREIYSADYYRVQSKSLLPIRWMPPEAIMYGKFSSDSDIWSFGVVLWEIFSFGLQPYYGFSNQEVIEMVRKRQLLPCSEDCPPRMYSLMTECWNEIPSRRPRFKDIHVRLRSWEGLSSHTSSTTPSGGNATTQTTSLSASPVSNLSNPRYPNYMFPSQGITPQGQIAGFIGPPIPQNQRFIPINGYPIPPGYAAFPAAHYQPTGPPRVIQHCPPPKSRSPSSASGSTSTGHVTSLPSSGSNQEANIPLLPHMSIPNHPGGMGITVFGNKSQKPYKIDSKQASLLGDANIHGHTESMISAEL

MFI ratio (MFIR) (human ROR1 protein [1]): 10 ratio
MFI ratio (MFIR) (human ROR1 protein [2]): 6.3 ratio
average MFIR (human ROR1 protein [3]): 12.4 ratio
median MFIR (human ROR1 protein [3]): 12 ratio
average MFIR (human ROR1 protein [4]): 12 ratio
median MFIR (human ROR1 protein [4]): 12.2 ratio
B1: 4A5 anti-ROR1 mAb (antibody, V domains shown)
VH: EVKLVESGGGLVKPGGSLKLSCAASGFTFSSYAMSWVRQIPEKRLEWVASISRGGTTYYPDSVKGRFTISRDNVRNILYLQMSSLRSEDTAMYYCGRYDYDGYYAMDYWGQGTSVTVSS
VL: DIKMTQSPSSMYASLGERVTITCKASPDINSYLSWFQQKPGKSPKTLIYRANRLVDGVPSRFSGGGSGQDYSLTINSLEYEDMGIYYCLQYDEFPYTFGGGTKLEMK
